# Measurements: patent US10189887B2, “Polypeptides and uses thereof for reducing CD95-mediated cell motility” (INSERM (INSTITUT NATIONAL DE LA SANTÉ ET DE LA RECHERCHE …, priority 2014, dated 2019)
# Experiments:
# [1] = system: CD95-mediated Ca^2+ response; test: Calcium response to cl-CD95L in Jurkat cells (Fura2/FuraPE3 video imaging); assay type: cell-based; conditions: 100 ng/ml cl-CD95L
# Procedure: (§1) Cells were loaded with Fura2-AM (1 μM) at resting temperature for 30 min in Hank's Balanced Salt Solution (HBSS). After washing with HBSS, the cells were incubated for 15 min in the absence of Fura2-AM to complete de-esterification of the dye. Cells were placed in a thermostated chamber (37° C.) of an inverted epifluorescence microscope (Olympus IX70) equipped with a ×40, UApo/340-1.15 W water-immersion objective (Olympus), and fluorescence micrograph images were captured at 510 nm and at 12-bit resolution by a fast-scan camera (CoolSNAP fx Monochrome, Photometrics). To minimize UV light exposure, 4×4 binning function was used. Fura2-AM was alternately excited at 340 and 380 nm, and ratios of the resulting images (excitations at 340 and 380 nm and emission filter at 520 nm) were produced at constant intervals (5 s or 10 s according to the stimulus). […] Fluorescent images were pseudocolored using the IMD display mode in MetaFluor and assembled without further manipulation in Photoshop (Adobe). Raw data were acquired with MetaFluor and graphed in Origin (OriginLab). [Ca^2+]i was calculated using the following equation: [Ca^2+]i=Kd(R−Rmin)/(R−Rmax)×Sf2/Sf1, where Kd is the Fura2-AM dissociation constant at the two excitation wavelengths (F340/F380); Rmin is the fluorescence ratio in the presence of minimal calcium, obtained by chelating Ca^2+ with 10 mM EGTA; Rmax is the fluorescence ratio in the presence of excess calcium, obtained by treating cells with 1 μM ionomycin; Sf2 is the fluorescence of the Ca^2+-free form; and Sf1 is the fluorescence of the Ca^2+-bound form of Fura2-AM at excitation wavelengths of 380 and 340 nm, respectively. In some experiments cells were placed in a Ca^2+-free medium consisting of the HBSS described above in which CaCl2 was omitted and 100 μM EGTA was added in order to chelate residual Ca^2+ ions. This medium was added to the cells just before recording to avoid leak of the intracellular calcium stores.
# T cells were loaded with Fura-PE3-AM (1 μM) at room temperature for 30 min in Hank's Balanced Salt Solution (HBSS). After washing, the cells were incubated for 15 min in the absence of Fura-PE3-AM to complete de-esterification of the dye. Cells were placed in the temperature controlled chamber (37° C.) of an inverted epifluorescence microscope (Olympus IX70) equipped with an ×40 UApo/340-1.15 W water-immersion objective (Olympus), and fluorescence micrograph images were captured at 510 nm and 12-bit resolution by a fast-scan camera (CoolSNAP fx Monochrome, Photometrics). To minimize UV light exposure, a 4×4 binning function was used. Fura-PE3 was alternately excited at 340 and 380 nm, and the ratios of the resulting images (emission filter at 520 nm) were produced at constant intervals (10 seconds). The Fura-PE3 ratio (Fratio 340/380) images were analyzed offline with Universal Imaging software, including Metafluor and Metamorph. Fratio reflects the intracellular Ca^2+ concentration changes. Each experiment was repeated 3 times, and the average of more than 20 single-cell traces was analyzed.
# [2] = system: CD95-mediated Ca^2+ response; test: Calcium response to cl-CD95L in activated PBL; assay type: cell-based, human; conditions: human PBLs pretreated 1 μM, 1 h (positive control); 100 ng/ml cl-CD95L
# Procedure: as §1
# All cells were purchased from ATCC (Molsheim Cedex, France). T leukemic cell lines CEM, H9 and Jurkat were cultured in RPMI supplemented with 8% heat-inactivated FCS (v/v) and 2 mM L-glutamine at 37° C. in a 5% CO2 incubator. CEM-IRC cell expressing a low amount of plasma membrane CD95 was described in (Beneteau et al., 2007; Beneteau et al., 2008). […]
# T cells were loaded with Fura-PE3-AM (1 μM) at room temperature for 30 min in Hank's Balanced Salt Solution (HBSS). […] Cells were placed in the temperature controlled chamber (37° C.) of an inverted epifluorescence microscope (Olympus IX70) equipped with an ×40 UApo/340-1.15 W water-immersion objective (Olympus), and fluorescence micrograph images were captured at 510 nm and 12-bit resolution by a fast-scan camera (CoolSNAP fx Monochrome, Photometrics). […]
# Th17 cells = test: Endothelial transmigration of CD4 T-cell subsets (Th17, Th1, Treg), Boyden chamber; assay type: cell-based, human
# Procedure: Animal experiments were subject to ethical review by the University of Nottingham were appropriate and conducted using PPL 40/3412 in accordance with the UK Home Office guidance and under ASPA (1986). For the generation of murine T-cell subsets, spleens were removed from C57Bl/6 mice and single cell suspensions prepared. CD4^+CD62L^+ naïve cells were isolated using Miltenyi Biotec microbeads. Naïve human CD4^+ T-cells were prepared using the Miltenyi Biotec naïve CD4^+ T-cell isolation kit II, which are sorted produced a 99% pure population of CD4^+CD45RA^+ cells. Purified cells were cultured in complete IMDM media all with α-CD3 (1 μg/ml), α-CD28 (2 μg/ml), and as follows; Th1 cells IL-12 (10 ng/ml) with α-IL-4 (10 μg/ml), Th2 cells IL-4 (10 ng/ml) and α-IFN-γ (10 μg/ml), Th17 cells Il-6 (10 ng/ml), TGF-β1 (2 ng/ml), α-IFN-γ (10 μg/ml) with α-IL-4 (10 μg/ml), and Tregs IL-2 (10 ng/ml) TGF-β1 (5 ng/ml), α-IFN-γ (10 μg/ml) and α-IL-4 (10 μg/ml). Cells were converted to T-cell subsets over five days as outlined above. All cytokines were supplied by PeproTech (London, UK). Mouse CD3 (clone 2C11); human CD3 (UCHT1); mouse CD28 (37.51); human CD28 (CD28.2); mouse IL-4 (11B11); human IL-4 (MP4-25D2); mouse IFN-γ (XMG1.2); human IFN-γ B27 came from BD Pharmigen.
# After hydration of the Boyden chamber membranes containing 3 μm pore size membranes (Millipore, Molsheim, France), activated T-lymphocytes (10^6) were added to the top chamber on a confluent monolayer of HUVEC in a low serum (1%)-containing medium. […] In experiments using human sera, 500 μl of serum from either healthy donors or SLE patients was added in the lower reservoir. Cells were cultured for 24 h at 37° C. in a 5% CO2 humidified incubator. Transmigrated cells were counted in the lower reservoir by flow cytometry using a standard of 2.5×10^4 fluorescent beads (Flow-count, Beckman Coulter).
# Blocking antibodies were used against E-selectin and ICAM-1 in the CHEMICON® endothelial cell adhesion assay (Millipore). Briefly, after activation of the endothelial cell layer with TNF-α, anti-mouse Ig controls, anti-E-selectin or anti-ICAM-1 were added at final concentrations of 10 μg/ml. Thereafter calcein-AM-stained T-cell subsets were incubated for 24 hours and unbound cells are washed. Cells attached to the endothelium were assessed using fluorescence plate reader.
# Th17 cell accumulation = test: In vivo administration of cl-CD95L: cell accumulation in peritoneal cavity and spleen; design: species or system C57BL/6 mice; conditions: 24 hours
# Procedure: Female C57BL/6 mice (Harlan UK) aged between 8-10 weeks were placed in groups of 6 and administered IP. Twenty-four hours following injection, mice were sacrificed and periteonial cavities were washed with 5 ml of PBS/2% FCS, blood smears were prepared, and spleens were collected. Blood smears and cytospins of periteonal cells (PECs) were stained with Giemsa and differential counts performed. Single cell suspensions of spleens and PECs were prepared, cell counts performed, CD4+CD62− T-cells were isolated with Miltenyi microbeads and number of cells determined by trypan blue exclusion. For experiments where animals received TAT-mCID or control peptides, 800 μg (40 mg/kg) was injected IP 2 hrs prior to administration of cl-CD95L. All mouse experiments were performed under ethical approval from the University of Nottingham local animal ethics committee and adhering to UK Home Office guidelines under the Project License 40/3412.
# Single cell suspensions of spleens and PECs were prepared as described above. RNA was extracted from CD4 T-cells using phenol/chloroform. cDNA was prepared using the Promega GO-Script Reverse Transcription Kit and used in Real-Time PCR. Briefly, cDNA samples were subject to Taqman assay performed on a Roche Lightcycler. Results are reported as expression levels were calculated using the Δct method relative to HPRT.
molecule,measurement,setting,value
"C1CCC[C@H]2CCCN3CC[C@@H](CCCCCC[C@@H]4CCCN5CC[C@@H](CC1)O[C@@H]45)O[C@@H]23 [Xestospongin C, reference compound]",calcium response to cl-CD95L,"[1]; Jurkat cells pretreated 2 μM, 20 minutes",completely blocked the initial component of the calcium response
same,CD95-mediated Ca^2+ response,[2],abrogated the CD95-mediated Ca^2+ response
Ryanodine,calcium response to cl-CD95L,"[1]; Jurkat cells pretreated 20 minutes with 10 μM Ryanodine, alone or with Xestospongin C",did not reduce the initial peak but blocked the plateau phase
"CD95-Fc: decoy receptor for CD95L (protein, left off: a dimerising Fc or GST, decoy receptor for CD95L) QVTDINSKGLELRKTVTTVETQNLEGLHHDGQFCHKPCPPGERKARDCTVNGDEPDCVPCQEGKEYTDKAHFSSKCRRCRLCDEGHGLEVEINCTRTQNTKCRCKPNFFCNSTVCEHCDPCTKCEHGIIKECTLTSNTKCKEEGSRSN",Th17 cell migration induced by SLE sera,"Th17 cells; pre-incubation of SLE sera with decoy receptor, increasing concentrations",prevented Th17 cell migration in a dose-dependent manner
cl-CD95L: recombinant homotrimeric metalloprotease-cleaved CD95L from supernatant of transfected HEK 293 cells (protein) QIGHPSPPPEKKELRKVAHLTGKSNSRSMPLEWEDTYGIVLLSGVKYKKGGLVINETGLYFVYSKVYFRGQSCNNLPLSHKVYMRNSKYPQDLVMMEGKMMSYCTTGQMWARSSYLGAVFNLTSADHLYVNVSELSLVNFEESQTFFGLYKL,total cell counts from the PEC and spleen,Th17 cell accumulation; single IP dose cl-CD95L (200 ng) versus vehicle,significant increase in the number of lymphocytes
same,"Th17 lineage markers (IL-17, IL-23R, CCR6) in recruited activated CD4+ T cells, Q-PCR",Th17 cell accumulation; single IP dose cl-CD95L (200 ng),induced the recruitment of Th17 cells
same,transmigration of CD4 T-cell subsets,"Th17 cells; Th1 and Th17 versus Th0 and Th2, cl-CD95L 200 ng/ml",more efficient to promote the transmigration of Th1 and Th17 lymphocytes
same,endothelial transmigration of Th17 T cells,"Th17 cells; human Th17 cells, presence or absence of cl-CD95L",enhanced endothelial transmigration of Th17 T cells
same,endothelial transmigration of Treg cells,"Th17 cells; human regulatory T-cells, presence or absence of cl-CD95L",failed to induce significant Treg transmigration
